Test [1] deals with EGFP-RhoA (UniProt P61586). The experiment in a line: fluorescence polarisation; 100 nM EGFP-RhoA.GDP titrated with Dbs; 20 mM Tris pH 7.4, 150 mM KCl, 1 mM TCEP, 1 mM EDTA (nucleotide-free RhoA); 25 °C.
The target in test [2] is EGFP-RhoA (UniProt P61586). The test can be described thus: fluorescence polarisation; 100 nM EGFP-RhoA.GDP titrated with Dbs; 20 mM Tris pH 7.4, 150 mM KCl, 1 mM TCEP, 2 mM MgCl2 (nucleotide-loaded RhoA); 25 °C.

EGFP-RhoA, sequence (P61586 whole entry): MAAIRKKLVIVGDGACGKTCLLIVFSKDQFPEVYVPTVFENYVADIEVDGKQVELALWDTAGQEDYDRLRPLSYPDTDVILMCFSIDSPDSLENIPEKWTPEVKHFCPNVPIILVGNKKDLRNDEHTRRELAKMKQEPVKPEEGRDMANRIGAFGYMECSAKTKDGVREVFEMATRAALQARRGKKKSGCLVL

B1: guanine exchange factor Dbs 622-965 (domain or fragment)
chain: TGEEEESLAILRRHVMNELLDTERAYVEELLCVLEGYAAEMDNPLMAHLISTGLQNKKNILFGNMEEIYHFHNRNIPAGLESCIDCPELVGRCFLERMEEFQIYEKYCQNKPRSESLWRQCSDCPFFQECQKKLDHKLSLDSYLLKPVQRITKYQLLLKEMLKYSKHCEGAEDLQEALSSILGILKAVNDSMHLIAITGYDGNLGDLGKLLMQGSFSVWTDHKKGHTKVKELARFKPMQRHLFLHEKAVLFCKKREENGEGYEKAPSYSYKQSLNMTAVGITENVKGDTKKFEIWYNAREEVYIIQAPTPEIKAAWVNEIRKVLTSQLQACREASQHRALEQSH
The term Kd denotes the concentration at which binding is half-saturated. A low value points to a tighter complex. As for B1, the values for the Kd in the test with EGFP-RhoA [1] and in the test with EGFP-RhoA [2] were 0.354 µM and 21.2 µM, respectively.

For the origin of these results see publication PMC4686654.
